In PMC4837482, “The complex binding mode of the peptide hormone H2 relaxin to its receptor RXFP1” (Nature Communications, 2016):

Tests used:
RXFP1 F54A = target: T1, RXFP1 F54A (Homo sapiens, UniProt Q9HBX9, F76A); test: Eu-H2 relaxin saturation binding assay, transfected HEK293T cells; conditions: F54A-RXFP1 versus wild-type RXFP1
T1 construct: cells expressing full-length RXFP1 and mutants; expressed in transfected cells; host or cells: HEK293T
T1 sequence (Q9HBX9 23-757 F76A limits assumed): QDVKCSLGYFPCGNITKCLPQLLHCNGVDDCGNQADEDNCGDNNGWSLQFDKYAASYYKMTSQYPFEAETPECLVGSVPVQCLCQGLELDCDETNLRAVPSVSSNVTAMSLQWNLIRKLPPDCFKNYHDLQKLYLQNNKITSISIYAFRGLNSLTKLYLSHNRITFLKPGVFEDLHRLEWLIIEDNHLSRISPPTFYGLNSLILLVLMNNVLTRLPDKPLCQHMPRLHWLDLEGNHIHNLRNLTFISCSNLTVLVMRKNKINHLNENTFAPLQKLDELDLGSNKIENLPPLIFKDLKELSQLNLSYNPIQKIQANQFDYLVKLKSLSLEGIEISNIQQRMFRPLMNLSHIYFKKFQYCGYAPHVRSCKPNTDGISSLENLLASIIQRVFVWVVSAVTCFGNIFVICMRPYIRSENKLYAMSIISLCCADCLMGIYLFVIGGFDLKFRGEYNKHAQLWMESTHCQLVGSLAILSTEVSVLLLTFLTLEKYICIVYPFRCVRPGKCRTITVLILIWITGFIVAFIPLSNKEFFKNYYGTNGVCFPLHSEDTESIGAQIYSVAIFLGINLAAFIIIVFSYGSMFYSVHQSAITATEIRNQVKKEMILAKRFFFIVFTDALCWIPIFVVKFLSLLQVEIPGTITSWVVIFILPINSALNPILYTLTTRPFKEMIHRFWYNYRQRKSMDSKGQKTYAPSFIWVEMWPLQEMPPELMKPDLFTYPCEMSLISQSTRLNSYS

RXFP1 F54A/Y58A = target: T2, RXFP1 F54A/Y58A (Homo sapiens, UniProt Q9HBX9, F76A/Y80A); test: as above; conditions: F54A/Y58A RXFP1 versus wild-type RXFP1
T2 construct: cells expressing full-length RXFP1 and mutants; expressed in transfected cells; host or cells: HEK293T
T2 sequence (Q9HBX9 23-757 F76A/Y80A limits assumed): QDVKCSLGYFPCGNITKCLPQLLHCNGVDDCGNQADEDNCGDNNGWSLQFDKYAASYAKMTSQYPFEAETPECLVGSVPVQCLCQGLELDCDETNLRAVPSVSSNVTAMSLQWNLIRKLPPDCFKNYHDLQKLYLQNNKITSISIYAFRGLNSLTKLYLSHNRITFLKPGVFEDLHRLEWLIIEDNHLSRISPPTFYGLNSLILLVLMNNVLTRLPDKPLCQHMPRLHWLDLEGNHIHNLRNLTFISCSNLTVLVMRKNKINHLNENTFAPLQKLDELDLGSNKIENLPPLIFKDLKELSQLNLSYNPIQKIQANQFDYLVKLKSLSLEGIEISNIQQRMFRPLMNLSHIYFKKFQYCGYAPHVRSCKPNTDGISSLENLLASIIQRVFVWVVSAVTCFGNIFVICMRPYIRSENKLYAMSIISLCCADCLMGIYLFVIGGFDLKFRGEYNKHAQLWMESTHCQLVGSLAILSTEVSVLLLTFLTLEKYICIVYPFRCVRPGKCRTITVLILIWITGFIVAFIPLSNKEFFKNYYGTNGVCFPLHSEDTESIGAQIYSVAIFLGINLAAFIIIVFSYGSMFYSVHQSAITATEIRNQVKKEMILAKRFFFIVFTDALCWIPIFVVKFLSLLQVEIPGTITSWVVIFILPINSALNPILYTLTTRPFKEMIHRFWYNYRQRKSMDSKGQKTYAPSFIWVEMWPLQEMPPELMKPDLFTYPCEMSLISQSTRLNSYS

[1] = target: T3, RXFP1 G45A/W46A, full length (human); test: cell-based or functional assay
T3 chain: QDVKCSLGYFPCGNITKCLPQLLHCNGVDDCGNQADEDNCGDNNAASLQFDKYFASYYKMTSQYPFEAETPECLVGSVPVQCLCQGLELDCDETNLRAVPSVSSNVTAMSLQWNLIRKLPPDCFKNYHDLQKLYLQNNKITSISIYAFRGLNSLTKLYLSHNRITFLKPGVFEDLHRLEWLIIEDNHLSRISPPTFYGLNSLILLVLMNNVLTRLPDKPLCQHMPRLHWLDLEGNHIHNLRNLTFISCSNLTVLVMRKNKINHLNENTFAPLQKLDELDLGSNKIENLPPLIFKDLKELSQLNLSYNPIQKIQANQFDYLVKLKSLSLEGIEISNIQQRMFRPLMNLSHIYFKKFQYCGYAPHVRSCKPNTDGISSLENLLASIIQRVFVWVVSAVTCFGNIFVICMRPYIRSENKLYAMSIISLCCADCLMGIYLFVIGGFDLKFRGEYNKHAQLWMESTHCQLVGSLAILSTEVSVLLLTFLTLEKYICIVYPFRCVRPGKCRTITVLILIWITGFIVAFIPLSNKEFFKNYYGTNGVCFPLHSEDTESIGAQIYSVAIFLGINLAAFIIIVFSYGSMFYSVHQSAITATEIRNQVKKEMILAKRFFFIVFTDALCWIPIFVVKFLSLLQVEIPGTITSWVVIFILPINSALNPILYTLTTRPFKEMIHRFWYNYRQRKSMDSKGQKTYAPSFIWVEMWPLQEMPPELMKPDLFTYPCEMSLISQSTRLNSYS

[2] = target: T4, RXFP1 G41A/D42A, full length (human); test: cell-based or functional assay
T4 chain: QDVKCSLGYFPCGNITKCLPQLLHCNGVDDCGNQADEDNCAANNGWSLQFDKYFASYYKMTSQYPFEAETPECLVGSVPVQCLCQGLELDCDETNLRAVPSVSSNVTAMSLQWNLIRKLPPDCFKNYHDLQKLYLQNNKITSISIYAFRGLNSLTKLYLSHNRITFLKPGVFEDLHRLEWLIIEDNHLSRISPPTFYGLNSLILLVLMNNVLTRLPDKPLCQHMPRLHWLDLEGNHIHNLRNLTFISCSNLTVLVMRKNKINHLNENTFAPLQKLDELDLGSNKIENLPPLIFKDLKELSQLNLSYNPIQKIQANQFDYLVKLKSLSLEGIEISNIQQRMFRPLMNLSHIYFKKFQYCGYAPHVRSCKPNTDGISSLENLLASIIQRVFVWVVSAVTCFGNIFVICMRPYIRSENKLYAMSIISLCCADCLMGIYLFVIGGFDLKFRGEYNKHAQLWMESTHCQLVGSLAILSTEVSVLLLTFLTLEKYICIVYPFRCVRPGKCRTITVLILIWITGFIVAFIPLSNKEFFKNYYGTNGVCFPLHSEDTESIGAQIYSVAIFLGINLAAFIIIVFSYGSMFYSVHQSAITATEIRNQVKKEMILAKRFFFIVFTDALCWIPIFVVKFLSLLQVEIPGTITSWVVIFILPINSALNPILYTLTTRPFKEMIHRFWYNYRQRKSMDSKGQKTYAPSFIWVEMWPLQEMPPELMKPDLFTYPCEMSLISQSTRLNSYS

In the case of “H2 relaxin: two-chain 6-kDa peptide hormone structurally related to insulin; recombinant human gene-2 H2 relaxin provided by Corthera”, the “loss in H2 relaxin binding” value (RXFP1 F54A) is reported as “fourfold” and the “loss in H2 relaxin binding” value (RXFP1 F54A/Y58A) is reported as “tenfold”.

B1: H2 relaxin (ligand, human)
chain 1: QLYSALANKCCHVGCTKRSLARFC
chain 2: DSWMEEVIKLCGRELVRAQIAICGMSTWS
With B1 the “H2 relaxin-induced cAMP response (pCRE β-galactosidase reporter, HEK293T), pEC50” value [1] was under 6 pEC50 and the “H2 relaxin-induced cAMP response (pCRE β-galactosidase reporter, HEK293T), pEC50” value [2] was 7.26 pEC50.
